The values that follow come from patent US20210032343A1.

For one assay, the target named is HER2 (human) (UniProt P04626). Kind of assay: ELISA. (ELISA stands for enzyme-linked immunosorbent assay.)
The next assay deals with PD-1 (human) (UniProt Q15116). In words: competition ELISA; blocking PD-1/PD-L2.
Chain of PD-1 (human) (Q15116 25-167): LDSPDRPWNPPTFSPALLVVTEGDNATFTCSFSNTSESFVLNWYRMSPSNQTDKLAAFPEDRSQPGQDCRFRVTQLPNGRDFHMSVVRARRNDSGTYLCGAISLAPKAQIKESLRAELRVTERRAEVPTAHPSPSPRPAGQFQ

The substance HER2 had an EC50 in the assay with HER2 (human) of 0.12 nM. The IC50 in the assay with PD-1 (human) is greater than 20 nM.

The term EC50 denotes the concentration needed to bring the measured effect to its halfway point. A lower EC50 goes with higher potency in that assay. For orientation: IC50 means the concentration that inhibits the measured activity by half.
